Laboratory results from publication PMC2824050.

Target: HSV-1 cytoplasmic capsids (HSV-1, KOS strain) (UniProt P10202)
Experiment: co-sedimentation

Sequence of UniProt P10202 (P10202 whole entry, looked up): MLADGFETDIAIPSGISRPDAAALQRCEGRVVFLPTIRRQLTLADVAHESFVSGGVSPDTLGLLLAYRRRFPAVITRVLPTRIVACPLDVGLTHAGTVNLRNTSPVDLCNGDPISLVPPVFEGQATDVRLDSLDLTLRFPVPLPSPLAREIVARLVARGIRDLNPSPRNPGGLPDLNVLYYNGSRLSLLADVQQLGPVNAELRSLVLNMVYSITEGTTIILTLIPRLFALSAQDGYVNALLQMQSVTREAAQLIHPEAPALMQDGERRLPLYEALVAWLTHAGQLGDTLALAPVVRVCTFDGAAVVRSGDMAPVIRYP

B1: UL16 tegument protein of herpes simplex virus (natural protein)
chain: MAQLGPRRPLAPPGPPGTLPRPDSRAGARGTRDRVDDLGTDVDSIARIVNSVFVWRVVRADERLKIFRCLTVLTEPLCQVALPNPDPGRALFCEIFLYLTRPKALRLPPNTFFALFFFNRERRYCAIVHLRSVTHPLTPLLCTLTFARIRAATPPEETPDPTTEQLAEEPVVGELDGAYLVPAKTPPEPGACCALGPGAWWHLPSGQIYCWAMDSDLGSLCPPGSRARHLGWLLARITNHPGGCESCAPPPHIDSANALWLSSVVTESCPCVAPCLWAKMAQCTLAVQGDASLCPLLFGHPVDTVTLLQAPRRPCITDRLQEVVGGRCGADNIPPTSAGWRLCVFSSYISRLFATSCPTVARAVARASSSDPE
- amount of UL16 on ΔUL37 capsids relative to WT: 42%
